Target: His6-DIP1-c (Disconnected Interacting Protein 1, longest isoform) (Drosophila melanogaster)
Assay: AUC

Substance: His6-DIP1-c (Disconnected Interacting Protein 1, longest isoform) (natural protein)
- stoichiometry N: 2

From article PMC3205248
